{"source": "paper PMC3378601", "about": "(PLoS Biology, 2012)", "molecular_target": "T1, Hsp42, yeast small heat shock protein (yeast, UniProt Q12329 1-375)", "T1 construct": "Hsp42, small heat shock protein of the yeast cytosol; also called sHsp; source: purified as described [28]; copies: 24", "T1 sequence (Q12329 whole entry)": "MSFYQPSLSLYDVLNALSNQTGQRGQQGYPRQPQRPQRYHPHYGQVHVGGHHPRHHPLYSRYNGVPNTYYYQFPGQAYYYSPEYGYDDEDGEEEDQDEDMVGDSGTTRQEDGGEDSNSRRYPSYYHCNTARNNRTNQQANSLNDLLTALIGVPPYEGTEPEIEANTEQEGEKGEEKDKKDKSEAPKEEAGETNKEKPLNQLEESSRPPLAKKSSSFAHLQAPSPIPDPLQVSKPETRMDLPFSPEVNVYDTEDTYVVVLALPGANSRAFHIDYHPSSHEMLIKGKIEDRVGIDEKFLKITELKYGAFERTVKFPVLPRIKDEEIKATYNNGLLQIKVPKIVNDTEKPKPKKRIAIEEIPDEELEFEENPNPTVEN", "test": "co-sedimentation; preassembled NM fibers (5 µM NM monomer) incubated 60 min at 25°C with Hsp26 or Hsp42 (10 µM); fibers recovered at 16,000 g for 30 min; pellet with or without a wash step, SDS-PAGE, Coomassie", "conditions": "both partners purified"}
{"binder": "NM, the prion domain (N and M domains) of the yeast translation termination factor Sup35, untagged (domain or fragment, UniProt P05453 1-253, looked up, Sup35, yeast translation termination factor; N domain (amino acids 1-123) plus M domain (amino acids 124-253) = NM; One construct used in several states: soluble NM, molten oligomers and preassembled amyloid fibers (assembled at 25°C with agitation in assembly buffer); With Hsp26 and Hsp42 it stood as preassembled fibers; also called untagged NM; NM fibers; source: purified as described [48]) MSDSNQGNNQQNYQQYSQNGNQQQGNNRYQGYQAYNAQAQPAGGYYQNYQGYSGYQQGGYQQYNPDAGYQQQYNPQGGYQQYNPQGGYQQQFNPQGGRGNYKNFNYNNNLQGYQAGFQPQSQGMSLNDFQKQQKQAAPKPKKTLKLVSSSGIKLANATKKVGTKPAESDKKEEEKSAETKEPTKEPTKVEEPVKKEEKPVQTEEKTEEKSELPKVEDLKISESTHNTNNANVTSADALIKEQEEEVDDEVVND", "values": [{"measurement": "binding result", "result": "binds"}]}
